Experimental data reported in patent publication US20240043504A1 (published 2024).

B1: mAb11004 (antibody, V domains shown)
VH: QVQLVESGGGVVQPGRSLRLSCVASGFTFSIYGMDWVRQAPGKGLEWVAVISYDGSNKYYADSVKGRFTISRDNSKNTLYLQMNSLRPEDTAVYYCAKDREAAADAFDIWGQGTMVTVSS
VL: DIQMTQSPSSVSASVGDRVTITCRASQGISSWLAWYQQKPGKAPKLLIYAASSLHSGVPSRFSGSGSGTDFTLTISSLQPEDFATYYCQQANSFRLTFGGGTKVEIK
B2: mAb11008 (antibody, V domains shown)
VH: EVQLVESGGGLVQPGGSLRLSCAASGFTVSSNYMTWVRQAPGKGLEWVSVIYSGGSTFYADSVKGRFTISRHNSENTLYLQMNSLRAEDTAVYYCARDLAAAGTDYWGQGALVTVSS
VL: DIQLTQSPSFLSASVGDRVTITCWASQGISSYLAWYQQKPGKAPKLLIYAASTLQSGVPSRFSGSGSGTEFTLTISSLQPDDFATYYCQHLNSYLYTFGQGTKLEIK

How the values were obtained:
Assay in all cases: Luminex bead binding, supernatant
[1] = target: Bt-SARS-CoV-2 Spike Protein (RBD)(R319-F541).mFc (mAb10621-L2) (SARS-CoV-2)
[2] = target: T1, MERS-CoV (NCoV/Novel coronavirus) Spike Protein S2 (aa 726-1296, His Tag) (Sino 40070-[change]) (MERS-CoV, UniProt K9N5Q8 726-1296)
T1 sequence: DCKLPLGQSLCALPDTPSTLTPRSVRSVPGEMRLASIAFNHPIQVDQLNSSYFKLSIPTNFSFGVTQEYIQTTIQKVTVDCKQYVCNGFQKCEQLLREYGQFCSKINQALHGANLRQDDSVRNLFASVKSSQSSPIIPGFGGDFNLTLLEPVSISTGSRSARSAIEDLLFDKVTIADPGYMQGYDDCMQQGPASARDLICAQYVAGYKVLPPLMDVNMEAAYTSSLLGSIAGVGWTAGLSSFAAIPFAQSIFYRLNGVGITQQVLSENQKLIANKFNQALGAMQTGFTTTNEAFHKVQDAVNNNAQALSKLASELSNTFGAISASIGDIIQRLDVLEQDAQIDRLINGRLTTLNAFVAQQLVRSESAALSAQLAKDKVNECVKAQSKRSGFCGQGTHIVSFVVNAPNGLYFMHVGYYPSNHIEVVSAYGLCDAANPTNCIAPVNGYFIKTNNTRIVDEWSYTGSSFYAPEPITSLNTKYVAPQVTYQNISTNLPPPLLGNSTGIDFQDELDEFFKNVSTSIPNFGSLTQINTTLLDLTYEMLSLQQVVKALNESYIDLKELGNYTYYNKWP

[3] = target: SARS-CoV-2 Spike Protein (RBD)(R319-F541).hFc (mAb10622-L1) (SARS-CoV-2)
[4] = target: SARS-CoV-2 Spike Protein (RBD)(R319-F541).mFc (mAb10621-L1) (SARS-CoV-2)
[5] = target: Human SARS Coronavirus Spike S1 Subunit Protein (His Tag) (Sino 40150-V08B1) (Human SARS Coronavirus, UniProt P59594 14-667)
[6] = target: T2, MERS-CoV (NCoV/Novel coronavirus) Spike Protein fragment (RBD, aa 367-606, His Tag) (Sino 40071-V08B1) (MERS-CoV, UniProt K9N5Q8 367-606)
T2 sequence: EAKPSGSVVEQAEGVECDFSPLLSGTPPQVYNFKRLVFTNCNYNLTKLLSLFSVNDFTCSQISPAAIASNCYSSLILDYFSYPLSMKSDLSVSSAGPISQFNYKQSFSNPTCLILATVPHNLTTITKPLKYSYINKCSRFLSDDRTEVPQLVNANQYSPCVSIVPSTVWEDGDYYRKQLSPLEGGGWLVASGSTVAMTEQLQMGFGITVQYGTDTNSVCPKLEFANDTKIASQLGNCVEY

[7] = target: T3, MERS-CoV (NCoV/Novel coronavirus) Spike Protein (ECD, aa 1-1297, His Tag) (Sino 40069-[change]) (MERS-CoV, UniProt K9N5Q8 18-1297)
T3 sequence: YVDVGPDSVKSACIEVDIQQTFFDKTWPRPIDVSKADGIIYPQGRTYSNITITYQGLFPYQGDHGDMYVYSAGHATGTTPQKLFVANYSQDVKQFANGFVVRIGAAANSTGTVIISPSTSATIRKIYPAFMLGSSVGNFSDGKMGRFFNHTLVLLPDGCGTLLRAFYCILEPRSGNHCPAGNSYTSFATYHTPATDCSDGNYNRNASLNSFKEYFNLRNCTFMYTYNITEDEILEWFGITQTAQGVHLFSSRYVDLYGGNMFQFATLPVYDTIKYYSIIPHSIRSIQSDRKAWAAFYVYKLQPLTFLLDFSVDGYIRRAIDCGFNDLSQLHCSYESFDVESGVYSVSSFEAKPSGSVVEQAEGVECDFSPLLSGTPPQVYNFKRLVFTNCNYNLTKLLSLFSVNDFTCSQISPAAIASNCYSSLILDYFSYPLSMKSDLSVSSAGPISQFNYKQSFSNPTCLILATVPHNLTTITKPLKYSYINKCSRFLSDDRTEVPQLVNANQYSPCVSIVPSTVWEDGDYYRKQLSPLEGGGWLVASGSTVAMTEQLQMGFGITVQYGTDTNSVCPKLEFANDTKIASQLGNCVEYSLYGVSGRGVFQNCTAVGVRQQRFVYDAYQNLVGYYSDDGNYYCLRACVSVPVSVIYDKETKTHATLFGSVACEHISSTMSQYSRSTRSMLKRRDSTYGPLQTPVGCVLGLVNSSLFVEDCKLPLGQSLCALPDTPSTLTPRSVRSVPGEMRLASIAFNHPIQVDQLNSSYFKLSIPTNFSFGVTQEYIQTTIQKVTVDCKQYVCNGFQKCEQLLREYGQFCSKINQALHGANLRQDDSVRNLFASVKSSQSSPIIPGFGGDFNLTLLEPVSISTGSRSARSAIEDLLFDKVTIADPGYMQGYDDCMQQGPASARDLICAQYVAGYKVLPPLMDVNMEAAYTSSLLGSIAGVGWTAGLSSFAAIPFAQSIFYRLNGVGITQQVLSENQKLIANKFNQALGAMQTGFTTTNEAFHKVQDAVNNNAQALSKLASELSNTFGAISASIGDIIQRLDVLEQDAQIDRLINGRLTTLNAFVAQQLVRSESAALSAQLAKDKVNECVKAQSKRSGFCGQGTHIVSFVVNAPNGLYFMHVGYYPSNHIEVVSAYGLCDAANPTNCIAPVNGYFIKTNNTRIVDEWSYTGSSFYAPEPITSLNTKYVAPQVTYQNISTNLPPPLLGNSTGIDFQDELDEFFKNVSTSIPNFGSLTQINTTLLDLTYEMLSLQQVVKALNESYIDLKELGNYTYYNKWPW

| Binder | Binding signal (MFI) [1] [MFI] | Binding signal (MFI) [2] [MFI] | Binding signal (MFI) [3] [MFI] | Binding signal (MFI) [4] [MFI] | Binding signal (MFI) [5] [MFI] | Binding signal (MFI) [6] [MFI] | Binding signal (MFI) [7] [MFI] |
| --- | --- | --- | --- | --- | --- | --- | --- |
| B1 | 4300 | 20 | 4880 | 4580 | 33 | 26 | 15 |
| B2 | 3050 | 16 | 2570 | 4260 | 31 | 20 | 18 |
